Test results as given in patent US12416034B2, “Recombinant production of steviol glycosides” (EVOLVA SA, priority 2011, dated 2025).

Assays:
EUGT11 = experiment: Inhibition studies of RebD production; format: biochemical, Oryza sativa; conditions: Steviva 500 μg/ml, UDP 500 μM; around 30 μM without any addition
Method: Experiments were conducted to determine if factors such as sucrose, fructose, UDP, product (RebD) and impurities in the less pure Stevia extracts raw materials inhibited the extent of the conversion of steviol glycoside substrates to RebD. In a standard reaction mixture, excess of the potential inhibitors (sucrose, fructose, UDP, RebD, or a commercial blend of steviol glycosides (Steviva, Steviva Brands, Inc., Portland, OR)) were added. Following incubation, RebD-production was quantified. […] The RebD that was produced was less than 7 μM. This inhibition can be alleviated in the in vivo or in vitro reactions for RebD production, by including an UDP recycling system to UDP-glucose, either by yeast or by an added SUS (sucrose synthase enzyme) in conjunction with sucrose.

[1] = tested on: S. cerevisiae strain BY4741; experiment: Steviol-feeding experiment of S. cerevisiae strain BY4741; format: cell-based; conditions: co-expressed with wild type UGT74G1, steviol feeding
Method: Further experiments were conducted to determine if the codon-optimized UGT85C2 could reduce 19-SMG accumulation and increase rubusoside and higher glycosylated steviol glycosides production. The production of 19-SMG and rubusoside were analysed in a steviol-feeding experiment of S. cerevisiae strain BY4741 expressing the wild type UGT74G1 as well as the codon-optimized UGT85C2 from high copy (2p) vectors under strong constitutive promoter (GPD1) (vectors P426-GPD and P423-GPD, respectively). Whole culture samples (without cell removal) were taken and boiled in an equal volume of DMSO for total glycosides levels. Intracellular concentrations reported were obtained by pelleting cells, and resuspending in 50% DMSO to the volume of the original culture sample taken, followed by boiling. The “total” glycosides level and the normalized intracellular level then were measured using LC-MS. Using wild type UGT74G1 and wild type UGT85C2, approximately 13.5 μM rubusoside was produced in total with a maximum normalized intracellular concentration of about 7 μM. In contrast, when wild type UGT74G1 and codon-optimized UGT85C2 were used, a maximum of 26 μM rubusoside was produced, or approximately double of what was produced using the wild type UGT85C2. Additionally, the maximum normalized intracellular concentration of rubusoside was 13 μM, again an approximate doubling of what was produced using wild type UGT85C2. […] Consequently, about 10 μM less total 19-SMG was measured for the codon-optimized UGT85C2.

[2] = Denaturation temperature by differential scanning calorimetry (DSC); format: physicochemical; conditions: 6HIS-purified enzymes, 91D2e-b GST-purified
Method: To assess the thermal stability of EUGT11 and to compare it with the other UGTs in the steviol glycosylation pathway, denaturation temperatures of the proteins were determined using differential scanning calorimetry (DSC). Use of DSC thermograms to estimate denaturation temperatures, TD, is described, for example, by E. Freire in Methods in Molecular Biology 1995, Vol. 40 191-218. DSC was performed (using 6HIS-purified EUGT11, yielding an apparent TD of 39° C.; while when GST-purified 91D2e-b was used, the measured TD was 79° C. For reference, the measured TD when using 6HIS-purified UGT74G1, UGT76G1 and UGT85C2 was 86° C. in all cases. One of skill in the art will recognize that enzyme immobilization or addition of thermal protectants can be added to the reactions to improve stability of the protein. Non-limiting examples of thermal protectants include trehalose, glycerol, ammonium sulphate, betaine, trimethylamine oxide, and proteins.

[3] = Codon optimized UGT cell lysate assay, steviol as substrate; format: biochemical; conditions: 0.25 mM steviol, 24 hours, 30° C.
Method: (§1) The wild-type, DNA 2.0, and GeneArt sequences were assayed for in vitro activity to compare reactivity on substrates in the steviol glycosides pathway. UGTs were inserted in high copy (2p) vectors and expressed from a strong constitutive promoter (GPD1) (vectors P423-GPD, P424-GPD, P425-GPD, and P426-GPD). The plasmids were transformed individually into the universal Watchmaker strain, EFSC301 (described in Example 3 of WO2011/153378) and assays were carried out using cell lysates prepared from equal amount of cells (8 OD units). For the enzymatic reactions, 6 μL of each cell lysate were incubated in a 30 μL reaction with 0.25 mM steviol (final concentration) to test UGT74G1 and UGT85C2 clones, and with 0.25 mM 13-SMG (13SMG) (final concentration) to test 76G1 and 91D2e UGTs. Assays were carried out for 24 hours at 30° C. Prior to LC-MS analysis, one volume of 100% DMSO was added to each reaction, samples were centrifuged at 16000 g, and the supernatants analysed.

[4] = Codon optimized UGT cell lysate assay, 13-SMG as substrate; format: biochemical; conditions: 0.25 mM 13-SMG, 24 hours, 30° C.
Method: as §1

[5] = In vitro transcribed and translated UGTs incubated with steviol, LC-MS; format: biochemical
Method: (§2) EUGT11 was produced by in vitro transcription and translation, and incubated with various substrates in the RebD pathway. Similar experiments were carried out using in vitro transcribed and translated UGT91D2e. […] Compounds 1-3 were identified solely by mass and expected retention time. The numbers shown in FIG. 3 are the average peak height of the indicated steviol glycoside obtained from a LC-MS chromatogram, and, although not quantitative, can be used to compare the activity of the two enzymes. […] Both enzymes were able to convert steviol 19-O-monoglucoside (SMG) to compound 1, with EUGT11 being about ten times more efficient than UGT91D2e at converting 19-SMG to compound 1.

[6] = Screening by LC-MS of E. coli lysates, rubusoside as substrate; format: biochemical
Method: (§3) To analyze the approximately 1600 mutant clones of UGT91D2e, the E. coli transformants were grown overnight at 30° C. in 1 ml of NZCYM containing ampicillin (100 mg/1) and chloramphenicol (33 mg/1), in 96-well format. The next day, 150 μl of each culture was inoculated into 3 ml NZCYM containing ampicillin (100 mg/1), chloramphenicol (33 mg/1), arabinose 3 mM, IPTG 0.1 mM and ethanol 2% v/v, in 24-well format, and incubated at 20° C. and 200 rpm for ˜20 h. The following day, cells were spun down and pellets were resuspended in 100 μl of lysis buffer containing 10 mM Tris-HCl pH 8, 5 mM MgCl2, 1 mM CaCl2) and complete mini protease inhibitor EDTA-free (3 tablets/100 ml) (Hoffmann-La Roche, Basel, Switzerland) and frozen −80° C. for at least 15 minutes to promote cell lysis. […] In each case, the resulting compounds, stevioside or rebaudioside D (rebD), were measured by LC-MS. Results were analyzed in comparison with the stevioside or rebD produced by the lysates expressing the corresponding controls (91D2e, 91D2e-b, EUGT11 and the empty plasmid). […]
(§4) Half of the 1600 clones and the corresponding controls were assayed for their capacity to glycosylate rubusoside and rebaudiosideA. Stevioside and RebD were quantified by LC-MS. […]

[7] = Screening by LC-MS of E. coli lysates, rebaudioside A as substrate; format: biochemical; conditions: RebA substrate
Method: as §3, §4

[8] = In vitro transcribed and translated UGTs incubated with rubusoside, LC-MS; format: biochemical
Method: as §2
The left panel of FIG. 5 contains LC-MS chromatograms of the conversion of rubusoside to stevioside. The right panel of FIG. 5 contains chromatograms of the conversion of rubusoside to stevioside, to compound 2, and to compound 3 (RebE). Conversion of rubusoside to compound 3 requires two consecutive 1, 2-O-glycosylations at the 19- and 13-positions of steviol.

[9] = In vitro transcribed and translated UGTs incubated with RebA and UDP-glucose, LC-MS; format: biochemical; conditions: LC-MS chromatograms, FIG. 4
Method: In vitro transcription and translation of these genes was performed, and the resulting UGTs incubated with RebA and UDP-glucose. Following incubation, the reactions were analyzed by LC-MS. […] See LC-MS chromatograms in FIG. 4. As shown in the left panel of FIG. 4, UGT91D2e produced a trace amount of RebD when RebA was used as the feedstock.
as §2
Both enzymes were able to convert RebA to RebD. However, EUGT11 was approximately 30 times better at converting RebA to RebD. Overall, it appears that EUGT11 produces more product than UGT91D2e in all reactions (with similar time, concentrations, temperature, and purity of enzyme) except the conversion of rubusoside to stevioside.

O=c1ccn([C@@H]2O[C@H](COP(=O)(O)OP(=O)(O)O)[C@@H](O)[C@H]2O)c(=O)[nH]1 [UDP]
RebD production in presence of potential inhibitor (EUGT11): less than 7 μM

B1: UGT85C2: S. rebaudiana UGT, SEQ ID NO:3 (protein, listed as Stevia rebaudiana)
chain: MDAMATTEKKPHVIFIPFPAQSHIKAMLKLAQLLHHKGLQITFVNTDFIHNQFLESSGPHCLDGAPGFRFETIPDGVSHSPEASIPIRESLLRSIETNFLDRFIDLVTKLPDPPTCIISDGFLSVFTIDAAKKLGIPVMMYWTLAACGFMGFYHIHSLIEKGFAPLKDASYLTNGYLDTVIDWVPGMEGIRLKDFPLDWSTDLNDKVLMFTTEAPQRSHKVSHHIFHTFDELEPSIIKTLSLRYNHIYTIGPLQLLLDQIPEEKKQTGITSLHGYSLVKEEPECFQWLQSKEPNSVVYVNFGSTTVMSLEDMTEFGWGLANSNHYFLWIIRSNLVIGENAVLPPELEEHIKKRGFIASWCSQEKVLKHPSVGGFLTHCGWGSTIESLSAGVPMICWPYSWDQLTNCRYICKEWEVGLEMGTKVKRDEVKRLVQELMGEGGHKMRNKAKDWKEKARIAIAPNGSSSLNIDKMVKEITVLARN
maximum intracellular concentration of 19-SMG [1]: 35 µM | maximum normalized intracellular concentration of rubusoside [1]: about 7 μM | rubusoside produced in total [1]: approximately 13.5 μM | denaturation temperature TD [2]: 86 °C | activity of GeneArt lysate as a percentage of the wild-type enzyme [3]: 340%

B2: UGT76G1: S. rebaudiana UGT, SEQ ID NO:7 (protein, listed as Stevia rebaudiana)
chain: MENKTETTVRRRRRIILFPVPFQGHINPILQLANVLYSKGFSITIFHTNFNKPKTSNYPHFTFRFILDNDPQDERISNLPTHGPLAGMRIPIINEHGADELRRELELLMLASEEDEEVSCLITDALWYFAQSVADSLNLRRLVLMTSSLFNFHAHVSLPQFDELGYLDPDDKTRLEEQASGFPMLKVKDIKSAYSNWQILKEILGKMIKQTKASSGVIWNSFKELEESELETVIREIPAPSFLIPLPKHLTASSSSLLDHDRTVFQWLDQQPPSSVLYVSFGSTSEVDEKDFLEIARGLVDSKQSFLWVVRPGFVKGSTWVEPLPDGFLGERGRIVKWVPQQEVLAHGAIGAFWTHSGWNSTLESVCEGVPMIFSDFGLDQPLNARYMSDVLKVGVYLENGWERGEIANAIRRVMVDEEGEYIRQNARVLKQKADVSLMKGGSSYESLESLVSYISSL
denaturation temperature TD [2]: 86 °C | activity of GeneArt lysate as a percentage of the wild-type enzyme [4]: 170%

B3: UGT91D2e: UGT91D2e polypeptide from Stevia rebaudiana, SEQ ID NO:5 (protein, listed as Stevia rebaudiana)
chain: MATSDSIVDDRKQLHVATFPWLAFGHILPYLQLSKLIAEKGHKVSFLSTTRNIQRLSSHISPLINVVQLTLPRVQELPEDAEATTDVHPEDIPYLKKASDGLQPEVTRFLEQHSPDWIIYDYTHYWLPSIAASLGISRAHFSVTTPWAIAYMGPSADAMINGSDGRTTVEDLTTPPKWFPFPTKVCWRKHDLARLVPYKAPGISDGYRMGLVLKGSDCLLSKCYHEFGTQWLPLLETLHQVPVVPVGLLPPEIPGDEKDETWVSIKKWLDGKQKGSVVYVALGSEVLVSQTEVVELALGLELSGLPFVWAYRKPKGPAKSDSVELPDGFVERTRDRGLVWTSWAPQLRILSHESVCGFLTHCGSGSIVEGLMFGHPLIMLPIFGDQPLNARLLEDKQVGIEIPRNEEDGCLTKESVARSLRSVVVEKEGEIYKANARELSKIYNDTKVEKEYVSQFVDYLEKNARAVAIDHES
use of steviol as a substrate [5]: not able to use steviol as a substrate | stevioside formed by lysates [6]: approximately 0.5 μM | RebD formed by lysates [7]: ~1 µM | amount of compound 3 (RebE) produced from rubusoside [8]: trace amount | activity of GeneArt lysate as a percentage of the wild-type enzyme [4]: 130% | amount of RebD produced when RebA was used as the feedstock [9]: trace amount
